# Results taken from patent US5866538A, “Insulin preparations containing NaCl” (Novo Nordisk A/S, priority 1996, dated 1999).
# Experiment: Stability tests of Asp^B28 human insulin preparations in Penfill cartridges, varying phosphate and NaCl (Example IV)
# Type: physicochemical
# Conditions: 19.6 μg Zn/100 U insulin, pH 7.4
# Description: 375.7 mg Asp^B28 human insulin was dissolved in water by adding 1.6 ml 0.2N HCl and 49 μl zinc chloride solution (40 mg Zn/ml). 20 g of a solution containing 80 mg/g glycerol, 7.50 mg/g phenol and 8.60 mg/g m-cresol was added to the solution while mixing. Varying amounts (3.71 g to 6.71 g) of a solution containing 24.0 mg/g disodium phosphate dihydrate and 11 μl/g 2N sodium hydroxide was added while mixing, finally varying amounts (0 g to 3.65 g) of a solution containing 40 mg/g sodium chloride were added while mixing so as to obtain a sodium chloride concentration mentioned in table 6. pH was adjusted to pH 7.40±0.05 and water added up to 100 ml. The Asp^B28 Human insulin preparations were introduced into Penfill® cartridges and subjected to stability tests at 25° C. and 37° C. The stability data at the two different temperatures and three different phosphate concentrations and at 19.6 μg Zn/100 U insulin and pH=7.4 are summarized in Tables 4, 5 and 6.
# [1] = 6 weeks at 37° C., NaCl added 10 mM, total Cl^- 13.8 mM, phosphate 5 mM
# [2] = 6 weeks at 37° C., NaCl added 10 mM, total Cl^- 13.8 mM, phosphate 7 mM
# [3] = 6 weeks at 37° C., NaCl added 10 mM, total Cl^- 13.8 mM, phosphate 9 mM
# [4] = 6 weeks at 37° C., NaCl added 15 mM, total Cl^- 18.8 mM, phosphate 5 mM
# [5] = 6 weeks at 37° C., NaCl added 15 mM, total Cl^- 18.8 mM, phosphate 7 mM
# [6] = 6 weeks at 37° C., NaCl added 15 mM, total Cl^- 18.8 mM, phosphate 9 mM
# [7] = 6 weeks at 37° C., NaCl added 20 mM, total Cl^- 23.8 mM, phosphate 5 mM
# [8] = 6 weeks at 37° C., NaCl added 20 mM, total Cl^- 23.8 mM, phosphate 7 mM
# [9] = 6 weeks at 37° C., NaCl added 20 mM, total Cl^- 23.8 mM, phosphate 9 mM
# [10] = 6 weeks at 37° C., NaCl added 25 mM, total Cl^- 28.8 mM, phosphate 5 mM
# [11] = 6 weeks at 37° C., NaCl added 25 mM, total Cl^- 28.8 mM, phosphate 7 mM
# [12] = 6 weeks at 37° C., NaCl added 25 mM, total Cl^- 28.8 mM, phosphate 9 mM
# [13] = 12 weeks at 25° C., NaCl added 0 mM, total Cl^- 3.8 mM, phosphate 5 mM
# [14] = 12 weeks at 25° C., NaCl added 0 mM, total Cl^- 3.8 mM, phosphate 7 mM
# [15] = 12 weeks at 25° C., NaCl added 5 mM, total Cl^- 8.8 mM, phosphate 5 mM
# [16] = 12 weeks at 25° C., NaCl added 5 mM, total Cl^- 8.8 mM, phosphate 7 mM
# [17] = 12 weeks at 25° C., NaCl added 5 mM, total Cl^- 8.8 mM, phosphate 9 mM
# [18] = 12 weeks at 25° C., NaCl added 10 mM, total Cl^- 13.8 mM, phosphate 5 mM
# [19] = 12 weeks at 25° C., NaCl added 10 mM, total Cl^- 13.8 mM, phosphate 7 mM
# [20] = 12 weeks at 25° C., NaCl added 10 mM, total Cl^- 13.8 mM, phosphate 9 mM
# [21] = 12 weeks at 25° C., NaCl added 15 mM, total Cl^- 18.8 mM, phosphate 5 mM
# [22] = 12 weeks at 25° C., NaCl added 15 mM, total Cl^- 18.8 mM, phosphate 7 mM
# [23] = 12 weeks at 25° C., NaCl added 15 mM, total Cl^- 18.8 mM, phosphate 9 mM
# [24] = 12 weeks at 25° C., NaCl added 20 mM, total Cl^- 23.8 mM, phosphate 5 mM
# [25] = 12 weeks at 25° C., NaCl added 20 mM, total Cl^- 23.8 mM, phosphate 7 mM
# [26] = 12 weeks at 25° C., NaCl added 20 mM, total Cl^- 23.8 mM, phosphate 9 mM
# [27] = 12 weeks at 25° C., NaCl added 25 mM, total Cl^- 28.8 mM, phosphate 5 mM
# [28] = 12 weeks at 25° C., NaCl added 25 mM, total Cl^- 28.8 mM, phosphate 7 mM
# [29] = 12 weeks at 25° C., NaCl added 25 mM, total Cl^- 28.8 mM, phosphate 9 mM
substance,measurement,setting,value
Asp^B28 human insulin,Di- & polymers formed,"6 weeks at 37° C., NaCl added 5 mM, total Cl^- 8.8 mM, phosphate 9 mM",1.1%
same,Asp^B28 Des-amido insulins formed,[1],3.4%
same,Di- & polymers formed,[1],1.2%
same,Asp^B28 Des-amido insulins formed,[2],3.1%
same,Di- & polymers formed,[2],1.1%
same,Asp^B28 Des-amido insulins formed,[3],3.7%
same,Di- & polymers formed,[3],1.0%
same,Asp^B28 Des-amido insulins formed,[4],3.1%
same,Di- & polymers formed,[4],1.1%
same,Asp^B28 Des-amido insulins formed,[5],3.1%
same,Di- & polymers formed,[5],1.0%
same,Asp^B28 Des-amido insulins formed,[6],3.5%
same,Di- & polymers formed,[6],1.0%
same,Asp^B28 Des-amido insulins formed,[7],2.7%
same,Di- & polymers formed,[7],1.1%
same,Asp^B28 Des-amido insulins formed,[8],2.9%
same,Di- & polymers formed,[8],1.0%
same,Asp^B28 Des-amido insulins formed,[9],3.5%
same,Di- & polymers formed,[9],1.0%
same,Asp^B28 Des-amido insulins formed,[10],3.0%
same,Di- & polymers formed,[10],0.9%
same,Asp^B28 Des-amido insulins formed,[11],2.8%
same,Di- & polymers formed,[11],1.1%
same,Asp^B28 Des-amido insulins formed,[12],3.1%
same,Di- & polymers formed,[12],0.9%
same,Asp^B28 Des-amido insulins formed,[13],2.2%
same,Di- & polymers formed,[13],0.5%
same,Asp^B28 Des-amido insulins formed,[14],2.0%
same,Di- & polymers formed,[14],0.5%
same,Di- & polymers formed,"12 weeks at 25° C., NaCl added 0 mM, total Cl^- 3.8 mM, phosphate 9 mM",0.4%
same,Asp^B28 Des-amido insulins formed,[15],1.7%
same,Di- & polymers formed,[15],0.4%
same,Asp^B28 Des-amido insulins formed,[16],1.7%
same,Di- & polymers formed,[16],0.4%
same,Asp^B28 Des-amido insulins formed,[17],1.8%
same,Di- & polymers formed,[17],0.4%
same,Asp^B28 Des-amido insulins formed,[18],1.5%
same,Di- & polymers formed,[18],0.4%
same,Asp^B28 Des-amido insulins formed,[19],1.4%
same,Di- & polymers formed,[19],0.4%
same,Asp^B28 Des-amido insulins formed,[20],1.5%
same,Di- & polymers formed,[20],0.4%
same,Asp^B28 Des-amido insulins formed,[21],1.4%
same,Di- & polymers formed,[21],0.4%
same,Asp^B28 Des-amido insulins formed,[22],1.5%
same,Di- & polymers formed,[22],0.4%
same,Asp^B28 Des-amido insulins formed,[23],1.5%
same,Di- & polymers formed,[23],0.4%
same,Asp^B28 Des-amido insulins formed,[24],1.3%
same,Di- & polymers formed,[24],0.4%
same,Asp^B28 Des-amido insulins formed,[25],1.4%
same,Di- & polymers formed,[25],0.4%
same,Asp^B28 Des-amido insulins formed,[26],1.6%
same,Di- & polymers formed,[26],0.4%
same,Asp^B28 Des-amido insulins formed,[27],1.3%
same,Di- & polymers formed,[27],0.4%
same,Asp^B28 Des-amido insulins formed,[28],1.3%
same,Di- & polymers formed,[28],0.4%
same,Asp^B28 Des-amido insulins formed,[29],1.4%
same,Di- & polymers formed,[29],0.4%
